From US20200385465A1 (SHANGHAI NOVAMAB BIOPHARMACEUTICALS, published 2020)

Tests used:
[1] = molecular target: T1, human full-length CD47 protein (human, UniProt Q08722 19-323); experiment: flow cytometry blocking assay, antibody together with hSIRPa (ECD)-Fc-Biotin on CD47 stable cells, SA-PE detection
T1 construct: whole, on cells; also called CD47 stably transferred cells; CD47 on the surface of erythrocyte

[2] = molecular target: T1, human full-length CD47 protein; experiment: flow cytometry blocking assay, antibody together with 5 ug hSIRPa (ECD)-Fc-Biotin on hCD47 stable cells, SA-PE detection
[3] = molecular target: T1, human full-length CD47 protein; experiment: competition flow cytometry on CD47 stably transfected cells, antibody titrated against 5 µg hSIRPa (ECD)-Fc-Biotin
[4] = molecular target: T2, CD47 (mouse), coated antigen protein (mouse, UniProt Q61735 19-140, limits assumed); experiment: ELISA, coated antigen, anti-HA and alkaline phosphatase detection
T2 construct: also called mouse CD47; murine-derived CD47
T2 sequence (looked up): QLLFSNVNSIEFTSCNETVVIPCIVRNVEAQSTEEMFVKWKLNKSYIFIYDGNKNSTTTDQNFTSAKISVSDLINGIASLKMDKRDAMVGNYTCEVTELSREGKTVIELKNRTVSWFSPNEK

[5] = molecular target: T3, CD47 (rat), coated antigen protein (rat, UniProt P97829 19-140, limits assumed); experiment: as above
T3 construct: also called rat CD47; murine-derived CD47
T3 sequence (looked up): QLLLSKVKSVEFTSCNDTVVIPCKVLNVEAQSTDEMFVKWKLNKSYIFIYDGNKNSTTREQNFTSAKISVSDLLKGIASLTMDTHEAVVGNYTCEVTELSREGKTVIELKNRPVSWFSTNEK

Question: How did the percent of cells positive for SIRPa-biotin (quadrant Q2) in the presence of the antibody [1] turn out when negative control antibody was run?
Answer: The percent of cells positive for SIRPa-biotin (quadrant Q2) in the presence of the antibody was 97.3%.

Question: What about the percent of cells positive for SIRPa-biotin (quadrant Q2) in the presence of the antibody at 1ug/ml [2] of the same molecule?
Answer: Its percent of cells positive for SIRPa-biotin (quadrant Q2) in the presence of the antibody at 1ug/ml is 97.2%.

B1: control antibody B6H12 (antibody)
chain: EVQLVESGGDLVKPGGSLKLSCAASGFTFSGYGMSWVRQTPDKRLEWVATITSGGTYTYYPDSVKGRFTISRDNAKNTLYLQIDSLKSEDTAIYFCARSLAGNAMDYWGQGTSVTVSSGGGGSGGGGSGGGGSDIVMTQSPATLSVTPGDRVSLSCRASQTISDYLHWYQQKSHESPRLLIKFASQSISGIPSRFSGSGSGSDFTLSINSVEPEDVGVYYCQNGHGFPRTFGGGTKLEIK
Question: With B1 as the molecule, how does the IC50 [3] read?
Answer: Its IC50 is 12.3 µg/mL.

B2: humanized CD47 single domain antibody (Nb1902) expressed from E. coli vector pMECS (VHH)
VHH: QVQLQESGGGLVQPGGSLRLSCAASGYAYTSDCMGWFRQTPGKGLEGVALIYTPGNSTNYADSVKGRFTISQDNSKSTVYLQMNSLRAEDTAMYYCAARRGACSLRLPFFYWGQGTLVTVSS
notes: also called humanized single domain antibody; not shown: C-terminal tag stretch from the pMECS vector (the HA tag used for detection and any other vector-encoded tag)
Question: Does B2 bind [4]?
Answer: Result: no binding

Question: Does B2 bind [5]?
Answer: Result: no binding
